Where a chain is given by its changes, count along the chain named.

To fix the notation:
B1: humanized ICR62 antibody I-HLA2/I-KC (antibody, human IgG1, V domains shown)
VH: QVQLVQSGAEVKKPGASVKVSCKASGFTFTDYYMHWVRQAPGQGLEWMGWINPNSGYSTYNEKFQGQVTISADKSISTAYLQWSSLKASDTAMYYCARLSPGGYYVMDAWGQGTTVTVSS
VL: DIQMTQSPSSLSASVGDRVTITCRASQGINNYLNWYQQKPGKAPKRLIYNTNNLQTGVPSRFSGSGSGTEFTLTISSLQPEDFATYYCLQHNSFPTFGQGTKLEIKR
B2: humanized ICR62 antibody I-HHD-8/I-KC (antibody, human IgG1, V domains shown)
VH: QVQLVQSGAEVKKPGSSVKVSCKASGFTFTDYKIHWVRQAPGQGLEWMGYFNPNSGTSTYAQKFQGRVTITADKSTSTAYMELSSLRSEDTAVYYCARLSPGGYYVMDAWGQGTTVTVSS
VL: B1 VL
B3: humanized ICR62 antibody I-HLA8/I-KC (antibody, human IgG1, V domains shown)
VH: B2 VH with V2M, A9P, S16T, T57Y
VL: B1 VL
B4: humanized ICR62 antibody I-HLA7/I-KC (antibody, human IgG1, V domains shown)
VH: B1 VH with V2M, A9P, A16T, Y33K, M34I, P41R, G44R, M48I
VL: B1 VL
B5: humanized ICR62 antibody I-HHD-10/I-KC (antibody, human IgG1, V domains shown)
VH: B2 VH with T57Y, V106G
VL: B1 VL
B6: humanized ICR62 antibody I-HLA4/I-KC (antibody, human IgG1, V domains shown)
VH: B1 VH with F27Y
VL: B1 VL
B7: humanized ICR62 antibody I-HLA6/I-KC (antibody, human IgG1, V domains shown)
VH: B1 VH with V2M, A9P, A16T
VL: B1 VL
B8: humanized ICR62 antibody I-HLA3/I-KC (antibody, human IgG1, V domains shown)
VH: B1 VH with F27Y, N61S, E62P, K63S
VL: B1 VL
B9: humanized ICR62 antibody I-HHC/I-KB (antibody, human IgG1, V domains shown)
VH: B2 VH with A24G, T57Y, A61N, Q62E, Q65K, G66S
VL: B1 VL with R24K, G28N, F71Y
notes: I-HHC was also paired with I-KA and the chimeric light chain
B10: humanized ICR62 antibody I-HLA9/I-KC (antibody, human IgG1, V domains shown)
VH: B2 VH with Q1E, S16E, V18L, V20I, A24G, F27Y, T28S, T57Y
VL: B1 VL
B11: humanized ICR62 antibody I-HHD/I-KC3 (antibody, human IgG1, V domains shown)
VH: B2 VH with T57Y
VL: B1 VL with N34G
B12: humanized ICR62 antibody I-HLA/I-KA (antibody, human IgG1, V domains shown)
VH: QVQLVQSGAEVKKPGASVKVSCKASGFTFTDYYMHWVRQAPGQGLEWMGWINPNSGYSTYAQKFQGRVTMTADTSISTAYMELSRLRSDDTAVYYCARLSPGGYYVMDAWGQGTTVTVSS
VL: B1 VL with F71Y
B13: humanized ICR62 antibody I-HLA5/I-KC (antibody, human IgG1, V domains shown)
VH: B1 VH with V2M, A9P, A16T, N61S, E62P, K63S
VL: B1 VL
B14: humanized ICR62 antibody I-HLA1/I-KC (antibody, human IgG1, V domains shown)
VH: B1 VH with N61S, E62P, K63S
VL: B1 VL
B15: humanized ICR62 antibody I-HHG/I-KC (antibody, human IgG1, V domains shown)
VH: B2 VH with A24G, T57Y, S58A
VL: B1 VL
B16: humanized ICR62 antibody I-HHB/I-KC (not glycoengineered) (antibody, V domains shown)
VH: B2 VH with A24G, T57Y
VL: B1 VL
notes: also called I-HHB/KC
B17: humanized ICR62 antibody I-HLA/I-KB (antibody, human IgG1, V domains shown)
VH: B12 VH
VL: B1 VL with R24K, G28N, F71Y
B18: humanized ICR62 antibody I-HHF/I-KC (antibody, human IgG1, V domains shown)
VH: B2 VH with A24G, T57Y, T59N
VL: B1 VL
B19: chimeric rat-human ICR62 antibody (antibody, human IgG1, V domains shown)
VH: QVNLLQSGAALVKPGASVKLSCKGSGFTFTDYKIHWVKQSHGKSLEWIGYFNPNSGYSTYNEKFKSKATLTADKSTDTAYMELTSLTSEDSATYYCTRLSPGGYYVMDAWGQGASVTVSS
VL: DIQMTQSPSFLSASVGDRVTINCKASQNINNYLNWYQQKLGEAPKRLIYNTNNLQTGIPSRFSGSGSGTDYTLTISSLQPEDFATYFCLQHNSFPTFGAGTKLELKR
notes: also called ch-ICR62; chimeric ICR62
B20: humanized ICR62 antibody I-HHD-9/I-KC (antibody, human IgG1, V domains shown)
VH: B2 VH with T57Y, S58A
VL: B1 VL
B21: humanized ICR62 antibody I-HHD-6/I-KC (antibody, human IgG1, V domains shown)
VH: B2 VH with P53A, T57Y
VL: B1 VL
B22: humanized ICR62 antibody I-HHD-11/I-KC (antibody, human IgG1, V domains shown)
VH: B2 VH with T57Y, A109V
VL: B1 VL
B23: humanized ICR62 antibody I-HHD-4/I-KC (antibody, human IgG1, V domains shown)
VH: B2 VH with D31E, T57Y
VL: B1 VL
B24: humanized ICR62 antibody I-HHD-2/I-KC (antibody, human IgG1, V domains shown)
VH: B2 VH with T28S, T57Y
VL: B1 VL
B25: humanized ICR62 antibody I-HHD-1/I-KC (antibody, human IgG1, V domains shown)
VH: B2 VH with F27G, T57Y
VL: B1 VL
B26: humanized ICR62 antibody I-HHD-7/I-KC (antibody, human IgG1, V domains shown)
VH: B2 VH with N54I, T57Y
VL: B1 VL
B27: humanized ICR62 antibody I-HHD/I-KC5 (antibody, human IgG1, V domains shown)
VH: B2 VH with T57Y
VL: B1 VL with T51A
B28: humanized ICR62 antibody I-HHD/I-KC8 (antibody, human IgG1, V domains shown)
VH: B2 VH with T57Y
VL: B1 VL with T56S
B29: humanized ICR62 antibody I-HHD/I-KC4 (antibody, human IgG1, V domains shown)
VH: B2 VH with T57Y
VL: B1 VL with N50T
B30: humanized ICR62 antibody I-HHD/I-KC6 (antibody, human IgG1, V domains shown)
VH: B2 VH with T57Y
VL: B1 VL with N52S
B31: humanized ICR62 antibody I-HHD/I-KC9 (antibody, human IgG1, V domains shown)
VH: B2 VH with T57Y
VL: B1 VL with F94Y
B32: humanized ICR62 antibody I-HHD/I-KC7 (antibody, human IgG1, V domains shown)
VH: B2 VH with T57Y
VL: B1 VL with N53S
B33: humanized ICR62 antibody I-HHD/I-KC1 (antibody, human IgG1, V domains shown)
VH: B2 VH with T57Y
VL: B1 VL with N30R
B34: humanized ICR62 antibody I-HHD/I-KC2 (antibody, human IgG1, V domains shown)
VH: B2 VH with T57Y
VL: B1 VL with Y32W

The target in the first assay is T1, human epidermal growth factor receptor (EGFR) (human, UniProt P00533 25-1210).
T1 construct: whole, on cells; also called HER-1; ErbB1
Briefly: flow cytometry on A431 cells. A general note: Flow cytometry measures light scatter and fluorescence of single cells or particles in a stream.
Description: The purified, monomeric humanized antibody variants were tested for binding to human epidermal growth factor receptor (EGFR, also referred to in the literature as HER-1 or ErbB1) on the A431 human epidermal cell line, using a flow cytometry-based assay. 200,000 cells (e.g., from human A431 cell line) in 180 μl FACS buffer (PBS containing 2% FCS and 5 mM EDTA) were transferred to 5 ml polystyrene tubes and 20 μl 10 fold concentrated anti-EGFR antibody (primary antibody) samples (1-5000 ng/ml final concentration) or PBS only were added. After gently mixing the samples, the tubes were incubated at 4° C. for 30 min in the dark. Subsequently, samples were washed twice with FACS buffer and pelleted at 300×g for 3 min. Supernatant was aspirated off and cells were taken up in 50 μl FACS buffer and 2 μl secondary antibody (anti-Fc-specific F(ab′)2-FITC fragments (Jackson Immuno Research Laboratories, USA)) was added and the tubes were incubated at 4° C. for 30 min. Samples were washed twice with FACS buffer and taken up in 500 μl of FACS buffer for analysis by Flow Cytometry. Binding was determined by plotting the geometric mean fluorescence against the antibody concentrations.
A word on the EC50: it is the midpoint of the concentration-response curve. In the case of B1, the EC50 is roughly 0.3 µg/mL.
Regarding B2, the “EC50 fold increase relative to I-HHD parent construct” value was 10 fold.
In the case of B3, the “EC50 fold decrease relative to ch-ICR62” value was 2 fold.
In the case of B4, the binding result was “binds”.
As for B5, the “EC50 fold increase relative to I-HHD parent construct” value amounted to 10 fold.
On to B6, for which the “EC50 fold increase relative to ch-ICR62, I-HLA1 and I-HLA2” value was 2 fold.
Still for that read-out and setting: for B7 the value was 2 fold; for B8, 2 fold.
Regarding B9, the binding result is recorded as “binds”.
Turning to B10, the binding result is “binds”.
As for B11, the “EC50 fold increase relative to I-KC (paired with I-HHD)” value was found to be 10 fold.
As to B12, the binding result was “binds”.
Take B13: the “EC50 fold increase relative to ch-ICR62, I-HLA1 and I-HLA2” value came out at 2 fold.
For B14, the half-maximal effective concentration (EC50) is roughly 0.3 µg/mL.
Turning to B15, the binding result is “binds”.
Turning to B16, the binding result is “binds”.
The same measure, in the same setting: the result for B17 reads “binds”; that for B18, “binds”.
B19: the EC50 is roughly 0.3 µg/mL and the “EC50 fold lower relative to I-HLA4” value is 2 fold.

The next assay has as its target T1, human epidermal growth factor receptor …. The experiment in a line: flow cytometry on A431 cells, heavy chain paired with I-KC.
As to B20, the binding result was “binds”.
Same read-out and setting: for B21 the value was “binds”; for B22, “binds”; for B23, “binds”.
On the same count and under the same terms, for B24 the value was “binds”; for B25, “binds”.
For the molecule B26, the binding result was “binds”.

A further assay shares this target. The experiment in a line: flow cytometry on A431 cells, light chain paired with I-HHD.
For the molecule B27, the binding result is “binds”.
Same read-out and setting: for B28 the value was “binds”; for B29, “binds”; for B30, “binds”.
With B31, the binding result is “binds”.
B32: the binding result was “binds”.
Still for that read-out and setting: for B33 the value was “binds”; for B34, “binds”.
